Measurements reported in US20220288204A1, “DOSAGE AND ADMINISTRATION OF ANTI-ERBB3 (HER3) MONOCLONAL ANTIBODIES TO TREAT TUMORS ASSOCIATED WITH NEUREGULIN 1 (NRG1) GENE FUSIONS” (ELEVATION ONCOLOGY, INC., priority 2021, published 2022).

Assays:
[1] = test system: HBECp53-CD74-NRG1 cells; assay: Time-course growth by cell counting; type: cell-based, human; details: highest concentration of seribantumab
Procedure: (§1) Expression of […] (FIG. 1A) or SLC3A2-NRG1 (FIG. 2B) fusions in MDA-MB-175-VII and LUAD-0061AS3 cells, respectively, was determined by RT-PCR. The HBECp53 (NRG1 fusion negative) and HBECp53-SLC3A2-NRG1 cells were used as negative and positive controls, respectively. […] Viability results represent the mean±SEM of 2-5 independent experiments in which each condition was assayed in triplicate determinations. Viability data were analyzed by nonlinear regression and the IC50 values for growth inhibition and the 95% confidence interval were determined with GraphPad Prism 8. […] Results represent the mean±SD for one experiment in which each condition was assayed in duplicate.
(§2) For the time-course experiments, cells were plated at a density of 5,000 (HCC-95) or 10,000 (all others) cells per well in 12-well tissue culture plates, and then treated 24 hours later (time 0) with the respective agents. […] Cells were trypsinized and counted at the relevant time-point shown on the graphs. For dose-response studies, cells were plated at a density of 7,500-10,000 cells in white clear-bottom 96-well plates in a volume of […] complete growth media and […] chemicals added at 10× concentration (to achieve 1× concentration) in a final volume of […]. After 96-hour incubation, […] AlamarBlue cell viability reagent was added to achieve a final concentration of 10%. AlamarBlue is a cell permeable […] dye that is reduced when it enters the mitochondria and emits fluorescence at a different wavelength (Gloeckner H, J. Immunol. Methods 2001; 252:131-8). Fluorescence was measured (excitation, 530 nm and emission, 585 nm) using a […] Spectramax M2 Fluorescence Plate Reader, as described previously (Somwar R, J. Biomol. Screen 2009; 14:1176-84). In each experiment, background fluorescence was determined in cells treated with […] of the 20S proteasome inhibitor, carfilzomib, which is toxic to most cells at high concentrations, and was subtracted from all values. There were 3-4 replicates of each condition. Relative IC50 values and 95% confidence interval values were determined by nonlinear regression analysis using GraphPad Prism 8 software using either a variable slope model or in cases where inhibition was only partial, a three-parameter fit was used. […] Each condition was assayed in triplicate in 2-5 independent experiments.
(§3) In these experiments, the MDA-MB-175 and LUAD-0061AS3 cell lines, isogenic HBECp53 cells ectopically expressing a CD74-NRG1 fusion, and the NRG1-amplified lung cancer cell line, HCC-95 (FIGS. 1E-H) were used. […] Afatinib sensitivity of HCC-95 cells was not examined in this study.

[2] = test system: HCC-95 cells; assay: Time-course growth by cell counting; type: cell-based, human; details: lowest antibody concentration
Procedure: as §1, §2, §3

[3] = test system: OV-10-0050 PDX tumors; assay: HGSOC ovarian PDX model efficacy (CLU-NRG1); type: in vivo, mice; design: average tumor volume at the time of the last treatment: unit not given beside the values; details: for average tumor volume at the time of the last treatment: day 27
Excerpt: IHC characterization of the OV-10-0050 PDX model (FIG. 6A). H&E staining, WT1, and TP53 IHC (left to right). […] (FIG. 6B). Treatment was terminated on day 27 and animals were monitored for tumor regrowth until tumors reached maximum allowable size or until 90 days after treatment initiation. Results represent the mean tumor volume ±SEM. A zoom-in view on tumor volumes during the last 40 days of monitoring of seribantumab-treated groups (right). […] Change in the volume of individual tumors (day 27 vs. volume at start of treatment) (FIG. 6C).
Crushed PDX tumor samples were mixed with Matrigel (50%) and injected into the subcutaneous flank of 6-week-old female NSG (LUAD-0061AS3) or Balb/c nude (OV-10-0050) mice. When tumors reached approximately 100-150 mm3, mice were randomly assigned to groups of 5-8 and treatment was commenced. There were 2 mice per group with bilateral flank tumors for the protein phosphorylation/expression study in the LUAD-0061AS3 PDX model. Drugs were administered once, and then tumors were collected at 2, 24, and 168 hours posttreatment. Afatinib was administered by oral gavage once daily as a suspension (in 0.5% methylcellulose-0.4% Tween-80) on a 5-days-on and 2-days-off schedule. […] Mice were observed daily throughout the treatment period for signs of morbidity and mortality. Tumor length and width and animal weights were measured twice weekly. Tumor volume was calculated using the empirical formula V=length×width 2×0.52. The percentage change in tumor volume of each tumor was calculated using the formula [(V2−V1)/V1)]×100, where V1 is the starting tumor volume and V2 is the final tumor volume.
RT-PCR confirmed the presence of the CLU-NRG1 fusion. Xenograft tissue morphology and IHC markers (positive for WT1 and strong nuclear staining for TP53) were consistent with HGSOC histology (FIG. 6A; Kobel M, et al., Int. J. Gynecol. Pathol. 2016; 35:430-41). […] As with the above experiments in the NSCLC PDX model, the doses of seribantumab used here were lower than the dose that is used in patients. Treatment was terminated at day 27 and tumor growth was monitored for an additional 63 days (90 days after initiation of treatment or once tumors reached the maximum allowable size). The tumor volume as a function of time is illustrated in FIG. 6B, and the AUC was computed for each group to compare tumor volumes between groups at the last date of treatment. […] Forty-one days after treatment began, mice bearing vehicle- and afatinib-treated tumors were sacrificed because of the high tumor burden.

[4] = test system: CTG-0943 PDX tumors; assay: Pancreatic adenocarcinoma PDX model (APP-NRG1); type: in vivo, mice
Procedure: Mice bearing CTG-0943 PDX tumors (5-8 mice per group) were treated with indicated agents (FIG. 8A). Representative H&E-stained slides of a vehicle-treated tumor (FIG. 8B). Tumor volume, results represent the mean±SEM. […] Change in the volume of individual tumors (vehicle: day 20; treated groups: day 31) compared with day 0(%) (FIG. 8D). Western blot analysis of vehicle, and afatinib and seribantumab-treated tumors. Tumor residues extracted day 24 for vehicle-, day 31 for seribantumab-, and day 32 for afatinib-treated groups. Antibody reactivity with human (H) and/or mouse (M) proteins is indicated.
Models of isogenic pancreatic cancer cells with NRG1 fusions by lentiviral-mediated cDNA expression of ATP1B1-NRG1 and SLC3A2-NRG1 fusions in immortalized human pancreatic ductal cells (H6c7) were developed. […] Western blotting analysis was used to evaluate protein phosphorylation and expression. The presence of NRG1 fusions was confirmed by reverse transcription polymerase chain reaction (RT-PCR) and next-generation sequencing (NGS).
There was no regression of afatinib-treated pancreatic PDX tumors. […] This was confirmed using a human-specific GAPH antibody.

[5] = 5 mg or 10 mg twice weekly seribantumab

B1: seribantumab: anti-ERBB3 (HER3) fully human monoclonal antibody; heavy and light chains SEQ ID NOs: 12 and 13 (antibody)
heavy: EVQLLESGGGLVQPGGSLRLSCAASGFTFSHYVMAWVRQAPGKGLEWVSSISSSGGWTLYADSVKGRFTISRDNSKNTLYLQMNSLRAEDTAVYYCTRGLKMATIFDYWGQGTLVTVSSASTKGPSVFPLAPCSRSTSESTAALGCLVKDYFPEPVTVSWNSGALTSGVHTFPAVLQSSGLYSLSSVVTVPSSNFGTQTYTCNVDHKPSNTKVDKTVERKCCVECPPCPAPPVAGPSVFLFPPKPKDTLMISRTPEVTCVVVDVSHEDPEVQFNWYVDGVEVHNAKTKPREEQFNSTFRVVSVLTVVHQDWLNGKEYKCKVSNKGLPAPIEKTISKTKGQPREPQVYTLPPSREEMTKNQVSLTCLVKGFYPSDIAVEWESNGQPENNYKTTPPMLDSDGSFFLYSKLTVDKSRWQQGNVFSCSVMHEALHNHYTQKSLSLSPGK
light: QSALTQPASVSGSPGQSITISCTGTSSDVGSYNVVSWYQQHPGKAPKLIIYEVSQRPSGVSNRFSGSKSGNTASLTISGLQTEDEADYYCCSYAGSSIFVIFGGGTKVTVLGQPKAAPSVTLFPPSSEELQANKATLVCLVSDFYPGAVTVAWKADGSPVKVGVETTKPSKQSNNKYAASSYLSLTPEQWKSHRSYSCRVTHEGSTVEKTVAPAECS
With B1 as the molecule, how does the “cell growth over time” value [1] read?
Its value is “almost complete inhibition of growth”.

What about the “cell growth over time” value [2] of the same molecule?
The value was “growth completely inhibited”.

What about the “average tumor volume at the time of the last treatment” value (“average tumor volume at the time” below) ([3]; 1 mg seribantumab twice weekly) of the same molecule?
The value was 1.3±0.3.

And the “average tumor volume at the time” value ([3]; 2.5 mg seribantumab twice weekly)?
Its value is 1.9±0.6.

What about the “average tumor volume at the time” value ([3]; 5 mg seribantumab twice weekly) of the same molecule?
Its value is 17.9±14.5.

What about the “average tumor volume at the time” value ([3]; 10 mg seribantumab twice weekly) of the same molecule?
Its value is 2.1±0.6.

What about the “day on which tumors started to regrow” value ([3]; 1, 2.5 and 5 mg seribantumab groups, treatment terminated day 27) of the same molecule?
Its value is ≤ 73 days.

What about the tumor regression ([3]; dosage lower than that used in human trials) of the same molecule?
The tumor regression was 100%.

And the “tumor regrowth after cessation of treatment” value ([3]; highest dose of seribantumab)?
Its value is “blocked tumor regrowth after cessation of treatment”.

And the tumor growth ([3]; seribantumab 1, 2.5, 5, 10 mg twice weekly)?
The tumor growth was “significant tumor shrinkage at all doses tested”.

What about the “tumor growth after treatment was stopped” value ([3]; seribantumab, monitoring after cessation) of the same molecule?
The value was “largely repressed for 63 days”.

And the “tumors that started to regrow at the end of the study” value ([3]; two highest dose groups of seribantumab)?
The value was “one of eight”.

And the tumor growth [4, 5]?
Its tumor growth is “Tumor growth inhibition was observed”.

And the tumor shrinkage [4, 5]?
Its tumor shrinkage is “up to 55%”.

What about the “tumor shrinkage, range” value [4, 5] of the same molecule?
The value was 23-77%.

And the “proteins in residual tumors by Western blotting” value ([4]; seribantumab-treated tumors, end of study (day 31))?
Its value is “Loss of phosphorylated and total EGFR, HER2 and HER3, cyclin D1”.

And the “efficacy compared with afatinib” value ([4]; two doses of seribantumab vs afatinib 5 mg/kg QD)?
The value was “more effective than afatinib”.
